From patent publication US5808025 come the findings set out here.

Test [1] deals with chimeric selectin L2P (human) (UniProt P16109).
Test [2] concerns the target chimeric selectin L2P3L (human) (UniProt P16109).

On to LAM1-3 mAb (antibody), for which the lymphocytes bound/HEV (lymphocytes bound/HEV) with L-selectin (human) came out at 0.05; in test [1], 0.074; in test [2], 0.08.
